Experimental data: US20180049457A1, “ENZYMATIC SYNTHESIS OF SOLUBLE GLUCAN FIBER” (E I DU PONT DE NEMOURS AND COMPANY, priority 2014, published 2018)

Test: GTF activity of strains (PAHBAH assay)
Assay type: biochemical
Conditions: enzyme expressed in B. subtilis host
Description: GTF activity of the strains was analyzed by PAHBAH assay in three separate experiments. Due to minor variations between the expeirments, Table 2 lists the activity of the truncated enzymes in the B. subtilis host along with the experiment in which the activity was measured. Most of the T1, T2, and T6 truncations decreased the activity of the enzymes, whereas the T4 and T5 C-terminal truncations retained similar activity relative to the respective N terminal-only truncations (NT). […] To identify specific amino acid residues within the catalytic domain that may be involved in producing the soluble α-glucan fiber, we analyzed the crystal structures (PDB Identifiers: 3AIB, 3AIC, and 3HZ3) of the catalytic domains of three glucosyltransferases to identify residues within 8 Angstroms of the bound ligand. 57 residues met that criterion. A motif was generated based on the corresponding 57 amino acids in GTF0459 and each of the identified homologs. The motif was then used to generate a consensus sequence to capture the variability in the catalytic domains of GTF0459 and the identified homologs. The consensus sequence is provided as SEQ ID NO: 153.

Row | Molecule | GTF activity of strains: Acitivity (Experiment Number 2) | GTF activity of strains: Acitivity (Experiment Number 3) | GTF activity of strains: Acitivity (Experiment Number 1)
1 | GTF0974T5: T5 C-terminal truncation of GTF0974 glucosyltransferase, SEQ ID NO: 118, strain SG1317 (protein, T5 C-terminal truncation of GTF0974) INGKQYYVNSDGSVRKNFVFEQDGKSYYFDAETGALATKSQDEFSTEPIKATVDFSSGNQLYKNDDKSLDQLDTFITADAWYRPKSILKDGKTWTASTEADKRPLLMVWWPDKSTQVNYLNYMQNQGLGAGSFSTNSSQESLDQAAKAVQTKIEERIAREGNTNWLRTSIDQFIKTQPGWNSSTENSSYDHLQGGQLLFNNSKGDTGNRTSHANSDYRLLNRTPTNQTGTRKYFKDNSIGGLEFLLANDIDNSNPAVQAEQLNWLHFMMNIGSIMANDPTANFDGLRVDALDNVDADLLQIASDYFKAAYGVDKSEANAIKHLSYLEAWSANDPYYNKDTKGAQLPIDNALRNALTNLLMRDKNTRMQLGDMTAFINSSLNPRGANDKNGERMANYIFTRAHDTEAQTIIQRIIRDRINPNLFGYNFTRDEIKKAFEIYNEDIDKAHKTYASYNLPSVYALMLTNKDSVTRVYYGDLYREDGHYMAKKTPYFDAIDTLLRARIKYVAGGQDMEVKKVGNDGLLTSVRYGKGANNRTDLGTSETRTQGMGVIMTNNYDFRLGSNETVTMNMGRAHRNQLYRPLLLTTKDGIATYLNDSDVPKKLLKRTDWNGNLTFNANDVFGVENVQVSGYLGVWVPYGAKANQDARTQPSNRANSDGQVYKSSAALDSQVMYEAFSNFQAFADDQPELYMNRVLAKNTDLLKAWGITSVGLPPQYVSSKDGTFLDSTIDNGYAFDDRYDMALSQNNKYGSLEDLLNVLRALHKDGIQAIADWVPDQIYNLPGKEVVNATRVNGYGNHQVGYQIIDQAYVANTRTDGTDYQGKYGGAFLDELKAKYPSIFNRVQISNGKQLPTNEKITKWSAKYFNGTNILGRGINYVLRDDKTNQYFNTSANSQLLPTPLRDTGAITSTQVFQRRGQDVYFLRDNQAVKNEFVQDGNGNWYYFGGDGKMTKGAQNINNKDYYFFDNGIQLRNALRRASNGYTYYYGLDGAMVKNAFVDFDDKHKQ | 43.5 U/mL | 37.7 U/mL | –
2 | GTF0974NT: N terminal-only truncated GTF0974 from Streptococcus salivarius 57.I, SEQ ID NO: 110, strain SG1290 (protein, Streptococcus salivarius 57.I) INGKQYYVNSDGSVRKNFVFEQDGKSYYFDAETGALATKSQDEFSTEPIKATVDFSSGNQLYKNDDKSLDQLDTFITADAWYRPKSILKDGKTWTASTEADKRPLLMVWWPDKSTQVNYLNYMQNQGLGAGSFSTNSSQESLDQAAKAVQTKIEERIAREGNTNWLRTSIDQFIKTQPGWNSSTENSSYDHLQGGQLLFNNSKGDTGNRTSHANSDYRLLNRTPTNQTGTRKYFKDNSIGGLEFLLANDIDNSNPAVQAEQLNWLHFMMNIGSIMANDPTANFDGLRVDALDNVDADLLQIASDYFKAAYGVDKSEANAIKHLSYLEAWSANDPYYNKDTKGAQLPIDNALRNALTNLLMRDKNTRMQLGDMTAFINSSLNPRGANDKNGERMANYIFTRAHDTEAQTIIQRIIRDRINPNLFGYNFTRDEIKKAFEIYNEDIDKAHKTYASYNLPSVYALMLTNKDSVTRVYYGDLYREDGHYMAKKTPYFDAIDTLLRARIKYVAGGQDMEVKKVGNDGLLTSVRYGKGANNRTDLGTSETRTQGMGVIMTNNYDFRLGSNETVTMNMGRAHRNQLYRPLLLTTKDGIATYLNDSDVPKKLLKRTDWNGNLTFNANDVFGVENVQVSGYLGVWVPYGAKANQDARTQPSNRANSDGQVYKSSAALDSQVMYEAFSNFQAFADDQPELYMNRVLAKNTDLLKAWGITSVGLPPQYVSSKDGTFLDSTIDNGYAFDDRYDMALSQNNKYGSLEDLLNVLRALHKDGIQAIADWVPDQIYNLPGKEVVNATRVNGYGNHQVGYQIIDQAYVANTRTDGTDYQGKYGGAFLDELKAKYPSIFNRVQISNGKQLPTNEKITKWSAKYFNGTNILGRGINYVLRDDKTNQYFNTSANSQLLPTPLRDTGAITSTQVFQRRGQDVYFLRDNQAVKNEFVQDGNGNWYYFGGDGKMTKGAQNINNKDYYFFDNGIQLRNALRRASNGYTYYYGLDGAMVKNAFVDFDDKHKQVRAFTTQGTMVVGNLHWSGHHFYFDRETGIQAKDRVVRTDDGKLHYYVAETGDMGRNVFATDSSTGKRYYFDADGNTVTGSRVIDGKTYYFNQDGSVGTAYSNRADSIIFENGKARYITPAGEIGRSIFVYNPETKAWNYFDKEGNRVTGRQYIDGHLYYFKEDGSQAKGEIIEENGVKYYYEPESGILASGRYLQVGDDQWMYFKQDGSLAIGQVRADHGYLKYFDKNGIQVKGKTVVEDGKTYYYDAHSGALVTSSFAEIAPNQWSYFNTDGQALKGKWTINGKEYYFDENGIQYKGKAIKVGSRYKYYDENDGQPVTNRFAQIEPNVWAYFGADGYAVTGEQVINGQHLYFDQSGRQVKGAYVTVNGQRRYYDANTGEYVPGR | 53 U/mL | 36.4 U/mL | 43.7 U/mL
3 | GTF4336T4: T4 C-terminal truncation of GTF4336, SEQ ID NO: 130, strain SG1318 (protein, T4 C-terminal truncation of GTF4336) INGKQYYVNSDGSVRKNFVFEQDGKSYYFDAETGALATKSQDEFSTEPIKATVDFSSGNQLYKNDDKSLDQLDTFITADAWYRPKSILKDGKTWTASTEADKRPLLMVWWPDKSTQVNYLNYMQNQGLGAGSFSTNSSQESLDQAAKAVQTKIEERIAREGNTNWLRTSIDQFIKTQPGWNSSTENSSYDHLQGGQLLFNNSKGDTGNRTSHANSDYRLLNRTPTNQTGTRKYFKDNSIGGLEFLLANDIDNSNPAVQAEQLNWLHFMMNIGSIMANDPTANFDGLRVDALDNVDADLLQIASDYFKAAYGVDKSEANAIKHLSYLEAWSANDPYYNKDTKGAQLPIDNALRNALTNLLMRDKNTRMQLGDMTAFINSSLNPRGANDKNGERMANYIFTRAHDTEAQTIIQRIIRDRINPNLFGYNFTRDEIKKAFEIYNEDIDKAHKTYASYNLPSVYALMLTNKDSVTRVYYGDLYREDGHYMAKKTPYFDAIDTLLRARIKYVAGGQDMEVKKVGNDGLLTSVRYGKGANNRTDLGTSETRTQGMGVIMTNNYDFRLGSNETVTMNMGRAHRNQLYRPLLLTTKDGIATYFNDSDVPKNLLKRTDWNGNLTFNANDVFGVENVQVSGYLGVWVPVGAKANQDARTQPSNRANSDGQVYKSSAALDSQVMYEAFSNFQAFADDQPELYMNRVLAKNTDLLKAWGVTSVGLPPQYVSSKDGTFLDSTIDNGYAFDDRYDMALSQNNKYGSLEDLLNVLRALHKDGIQAIADWVPDQIYNLPGKEVVNATRVNGYGYHQQGYQIVDQAYVANTRTDGTDYQGKYGGAFLDELKAKYPSIFNRVQISNGKQLPTNEKITKWSAKYFNGTNILGRGINYVLRDDKTNQYFNTSANSQLLPTPLRDTGAITSTQVFQRRGQDVYFLRDNQAVKNEFVQDGNGNWYYFGADGKMTKGAQTINKKDYYFFDNGIQLRNALRRANNGYTYYYGLDGAMVKNAFVDFDDKRK | 46.4 U/mL | – | –
4 | GTF4336T5: T5 C-terminal truncation of GTF4336, SEQ ID NO: 120, strain SG1319 (protein, T5 C-terminal truncation of GTF4336) INGKQYYVNSDGSVRKNFVFEQDGKSYYFDAETGALATKSQDEFSTEPIKATVDFSSGNQLYKNDDKSLDQLDTFITADAWYRPKSILKDGKTWTASTEADKRPLLMVWWPDKSTQVNYLNYMQNQGLGAGSFSTNSSQESLDQAAKAVQTKIEERIAREGNTNWLRTSIDQFIKTQPGWNSSTENSSYDHLQGGQLLFNNSKGDTGNRTSHANSDYRLLNRTPTNQTGTRKYFKDNSIGGLEFLLANDIDNSNPAVQAEQLNWLHFMMNIGSIMANDPTANFDGLRVDALDNVDADLLQIASDYFKAAYGVDKSEANAIKHLSYLEAWSANDPYYNKDTKGAQLPIDNALRNALTNLLMRDKNTRMQLGDMTAFINSSLNPRGANDKNGERMANYIFTRAHDTEAQTIIQRIIRDRINPNLFGYNFTRDEIKKAFEIYNEDIDKAHKTYASYNLPSVYALMLTNKDSVTRVYYGDLYREDGHYMAKKTPYFDAIDTLLRARIKYVAGGQDMEVKKVGNDGLLTSVRYGKGANNRTDLGTSETRTQGMGVIMTNNYDFRLGSNETVTMNMGRAHRNQLYRPLLLTTKDGIATYFNDSDVPKNLLKRTDWNGNLTFNANDVFGVENVQVSGYLGVWVPVGAKANQDARTQPSNRANSDGQVYKSSAALDSQVMYEAFSNFQAFADDQPELYMNRVLAKNTDLLKAWGVTSVGLPPQYVSSKDGTFLDSTIDNGYAFDDRYDMALSQNNKYGSLEDLLNVLRALHKDGIQAIADWVPDQIYNLPGKEVVNATRVNGYGYHQQGYQIVDQAYVANTRTDGTDYQGKYGGAFLDELKAKYPSIFNRVQISNGKQLPTNEKITKWSAKYFNGTNILGRGINYVLRDDKTNQYFNTSANSQLLPTPLRDTGAITSTQVFQRRGQDVYFLRDNQAVKNEFVQDGNGNWYYFGADGKMTKGAQTINKKDYYFFDNGIQLRNALRRANNGYTYYYGLDGAMVKNAFVDFDDKRKQ | 43.6 U/mL | – | –
